Here are results for one protein from FireProtDB (doi:10.1016/0022-2836(92)90387-y).

The conditions of the data set: Bacillus amyloliquefaciens; pH 6.3; 25 °C; Urea; Fluorescence; MES 50 mM; reversible: yes; whole UniProt chain shown.

B1: Ribonuclease wild type, P00648 (protein)
chain: MMKMEGIALKKRLSWISVCLLVLVSAAGMLFSTAAKTETSSHKAHTEAQVINTFDGVADYLQTYHKLPDNYITKSEAQALGWVASKGNLADVAPGKSIGGDIFSNREGKLPGKSGRTWREADINYTSGFRNSDRILYSSDWLIYKTTDHYQTFTKIR
For the protein B1, the unfolding free energy came out at 8.83 kcal/mol.
